Target: T1, cynomolgus integrin avb8 (cynomolgus)
T1 chain 1: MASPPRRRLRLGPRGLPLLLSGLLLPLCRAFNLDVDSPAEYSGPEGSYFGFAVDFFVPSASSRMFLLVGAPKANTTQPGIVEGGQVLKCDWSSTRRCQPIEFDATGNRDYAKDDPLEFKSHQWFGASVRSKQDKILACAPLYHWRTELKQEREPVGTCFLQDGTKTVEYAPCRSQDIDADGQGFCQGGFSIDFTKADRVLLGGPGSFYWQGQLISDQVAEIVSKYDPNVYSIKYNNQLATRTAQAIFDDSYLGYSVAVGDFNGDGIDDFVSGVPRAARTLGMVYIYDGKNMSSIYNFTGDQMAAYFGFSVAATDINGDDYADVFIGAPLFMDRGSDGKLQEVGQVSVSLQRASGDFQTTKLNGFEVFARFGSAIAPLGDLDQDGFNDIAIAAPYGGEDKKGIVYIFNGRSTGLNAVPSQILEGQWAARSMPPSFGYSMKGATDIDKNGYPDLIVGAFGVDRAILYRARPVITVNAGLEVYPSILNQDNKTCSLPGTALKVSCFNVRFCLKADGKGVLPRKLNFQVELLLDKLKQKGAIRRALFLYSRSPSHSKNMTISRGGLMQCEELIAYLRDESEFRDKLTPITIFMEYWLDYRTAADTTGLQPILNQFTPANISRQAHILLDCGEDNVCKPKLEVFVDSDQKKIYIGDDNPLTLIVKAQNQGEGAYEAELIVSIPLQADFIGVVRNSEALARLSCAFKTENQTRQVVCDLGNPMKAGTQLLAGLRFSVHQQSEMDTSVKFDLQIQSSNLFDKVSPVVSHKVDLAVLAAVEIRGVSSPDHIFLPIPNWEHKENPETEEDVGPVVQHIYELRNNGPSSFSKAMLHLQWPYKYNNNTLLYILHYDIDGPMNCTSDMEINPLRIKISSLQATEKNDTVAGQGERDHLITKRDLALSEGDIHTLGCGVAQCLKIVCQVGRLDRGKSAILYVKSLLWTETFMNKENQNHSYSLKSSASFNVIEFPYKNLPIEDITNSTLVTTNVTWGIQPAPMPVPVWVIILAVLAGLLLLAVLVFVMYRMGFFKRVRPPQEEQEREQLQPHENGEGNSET
T1 chain 2: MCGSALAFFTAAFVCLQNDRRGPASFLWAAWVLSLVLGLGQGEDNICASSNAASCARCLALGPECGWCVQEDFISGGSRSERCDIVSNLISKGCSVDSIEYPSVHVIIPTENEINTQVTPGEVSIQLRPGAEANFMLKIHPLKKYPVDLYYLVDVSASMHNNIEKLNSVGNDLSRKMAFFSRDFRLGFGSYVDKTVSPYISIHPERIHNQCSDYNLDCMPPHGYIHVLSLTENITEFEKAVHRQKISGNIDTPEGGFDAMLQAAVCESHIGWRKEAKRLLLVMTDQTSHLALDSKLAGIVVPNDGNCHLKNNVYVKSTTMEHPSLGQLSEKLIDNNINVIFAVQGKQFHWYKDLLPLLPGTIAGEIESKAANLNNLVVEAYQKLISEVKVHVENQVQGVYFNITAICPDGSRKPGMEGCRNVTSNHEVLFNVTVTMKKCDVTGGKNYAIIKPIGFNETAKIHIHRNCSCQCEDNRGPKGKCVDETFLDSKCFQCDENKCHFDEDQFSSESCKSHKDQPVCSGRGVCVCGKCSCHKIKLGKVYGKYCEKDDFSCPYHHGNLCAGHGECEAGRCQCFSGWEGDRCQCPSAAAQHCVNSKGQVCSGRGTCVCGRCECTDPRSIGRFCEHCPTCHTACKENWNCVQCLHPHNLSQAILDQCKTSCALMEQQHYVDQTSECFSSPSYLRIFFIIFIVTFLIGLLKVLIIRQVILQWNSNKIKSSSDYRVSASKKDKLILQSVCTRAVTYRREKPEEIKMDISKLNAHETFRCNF
Assay: SPR

B1: ADWA11 2.4 Fab (antibody, V domains shown)
VH: EVQLVESGGGLVQPGGSLRLSCAASGFNIKDYYMNWVRQAPGKGLEWVGWIDPDQGNTIYEPKFQGRFTISADTSKNSAYLQMNSLRAEDTAVYYCARRLLMDYWGQGTLVTVSS
VL: DIQMTQSPSSLSASVGDRVTITCRSTKSLSHFNGNTYLFWYQQKPGKAPKRLIYYMSSLASGVPSRFSGSGSGTDFTLTISSLQPEDFATYYCQQSLEYPFTFGGGTKVEIK
  Kd: < 0.1 nM

— US20220289850 (published 2022)
